# In patent publication US20200157223A1:
# Target: CD47 on the cell surface (A431, Raji, SKBR-3, NCI-H441, NK92MI-CD16a cells) (human) (UniProt Q08722)
# Experiment: cell-based or functional assay
# Sequence of Anti-PD-L1(12A4)-Fc1-D1-Fc2 (bispecific antibody) (chain): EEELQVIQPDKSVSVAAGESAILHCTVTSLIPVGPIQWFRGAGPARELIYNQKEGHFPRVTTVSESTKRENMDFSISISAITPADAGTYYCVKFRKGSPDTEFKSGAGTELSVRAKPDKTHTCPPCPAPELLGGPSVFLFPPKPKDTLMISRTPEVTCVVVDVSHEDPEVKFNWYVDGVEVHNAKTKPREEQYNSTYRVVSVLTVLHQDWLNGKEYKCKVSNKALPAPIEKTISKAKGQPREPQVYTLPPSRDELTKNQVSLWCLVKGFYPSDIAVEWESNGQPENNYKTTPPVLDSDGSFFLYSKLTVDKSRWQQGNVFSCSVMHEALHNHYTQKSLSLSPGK
# Sequence of Anti-PD-L1(12A4)-Fc1-D1-D2-D3-Fc2 (bispecific antibody) (chain): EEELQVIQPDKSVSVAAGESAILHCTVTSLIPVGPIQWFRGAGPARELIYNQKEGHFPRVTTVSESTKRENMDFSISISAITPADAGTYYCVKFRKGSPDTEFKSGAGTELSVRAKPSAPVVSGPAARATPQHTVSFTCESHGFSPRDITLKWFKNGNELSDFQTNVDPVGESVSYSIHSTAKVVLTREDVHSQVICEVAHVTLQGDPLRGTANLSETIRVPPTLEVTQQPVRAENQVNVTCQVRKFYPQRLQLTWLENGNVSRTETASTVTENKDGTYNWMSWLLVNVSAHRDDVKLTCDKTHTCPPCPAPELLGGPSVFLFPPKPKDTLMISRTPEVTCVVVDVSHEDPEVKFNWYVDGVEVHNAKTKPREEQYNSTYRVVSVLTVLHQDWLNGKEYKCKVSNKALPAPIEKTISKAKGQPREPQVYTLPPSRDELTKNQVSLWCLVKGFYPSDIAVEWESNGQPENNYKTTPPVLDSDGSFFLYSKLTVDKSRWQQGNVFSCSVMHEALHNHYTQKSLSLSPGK
# Sequence of Anti-PD-L1(12A4)-Fc1-D1-D2-Fc2 (bispecific antibody) (chain): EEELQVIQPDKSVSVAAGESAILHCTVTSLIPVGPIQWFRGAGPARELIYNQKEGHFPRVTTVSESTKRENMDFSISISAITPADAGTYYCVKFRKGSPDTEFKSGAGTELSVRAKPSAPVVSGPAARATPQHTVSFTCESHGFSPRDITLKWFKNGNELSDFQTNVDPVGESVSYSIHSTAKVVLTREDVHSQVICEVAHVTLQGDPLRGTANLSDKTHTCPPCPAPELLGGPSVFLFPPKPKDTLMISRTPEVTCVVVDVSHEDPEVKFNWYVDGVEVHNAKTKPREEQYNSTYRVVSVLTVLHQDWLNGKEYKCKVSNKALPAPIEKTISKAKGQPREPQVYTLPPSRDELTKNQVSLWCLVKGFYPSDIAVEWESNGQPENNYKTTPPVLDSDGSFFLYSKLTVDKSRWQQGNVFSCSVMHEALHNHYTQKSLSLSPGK
row,Substance,"toxic side effects caused by NK cells (ADCC on NK92MI-CD16a cells), reduction against the D1^m proteins [fold]"
1,Anti-PD-L1(12A4)-Fc1-D1-D2-Fc2 (bispecific antibody),> 1000
2,Anti-PD-L1(12A4)-Fc1-D1-Fc2 (bispecific antibody),> 1000
3,Anti-PD-L1(12A4)-Fc1-D1-D2-D3-Fc2 (bispecific antibody),> 1000
